B2: GST-mRXRα(DE) (pGEX2T-mRXRα(DE), amino acids 205-467) (receptor, mouse, UniProt P28700 205-467, looked up)
chain: MKREAVQEERQRGKDRNENEVESTSSANEDMPVEKILEAELAVEPKTETYVEANMGLNPSSPNDPVTNICQAADKQLFTLVEWAKRIPHFSELPLDDQVILLRAGWNELLIASFSHRSIAVKDGILLATGLHVHRNSAHSAGVGAIFDRVLTELVSKMRDMQMDKTELGCLRAIVLFNPDSKGLSNPAEVEALREKVYASLEAYCKHKYPEQPGRFAKLLLRLPALRSIGLKCLEHLFFFKLIGDTPIDTFLMEMLEAPHQAT
notes: range 205-467; also called GST-RXR; GST-RXRα(DE); not shown: glutathione-S-transferase (GST) of pGEX2T (Pharmacia)

Key:
ER, RARα and RXRα LBDs = assay: GST pull-down of TIF2 polypeptides with NR LBDs; type: binding; details: in vitro, with or without 10^−6 M ligand
Method: (b) Mapping of the nuclear receptor-interacting domain of TIF2.
(c-d) Interaction of TIF2 NID mutants with NRs in vitro. […] For quantification of point mutant interactions, see below.
(e-f) Effect of TIF2 NID point mutations on stimulation of NR AF-2 activity. Cos-1 cells were cotransfected with 1 μg of the (17m)5-TATA-CAT reporter, 0.2 μg of GAL-hERα(EF) or GAL-mRXRα(DE), and 2.5 μg of the TIF2.1 wildtype or mutated fragments, as indicated. […] Each bar represents the mean value obtained from at least three (interaction) or at least four (transactivation) experiments, respectively; standard deviations are indicated. Note that the absolute values for TIF2.1 wildtype activity varied by ±16% when cotransfected with GAL-hERα(EF) and by ±34% when cotransfected with GAL-mRXRα(DE). In the in-vitro-interaction assays, the affinity of the TIF2.1 wildtype standard varied by less than ±25%. Expression levels of TIF2 mutants in the cells were verified by Western blot (not shown) with mouse monoclonal antibody 3Ti3F1, which is directed against an epitope outside the mutated area.
To further delineate the TIF2 NR interaction domain (NID), we studied the interaction between a series of TIF2 deletion mutants and the ER or RARα LBDs, using GST-fusion protein-based in vitro assays. In both cases, an NWD was mapped to the central region of TIF2 (amino acids 624-869 in mutant TIF2.5; see FIGS. 7a and b). No additional NWD could be identified in the N- or C-termini of TIF2 (FIGS. 7a and b; mutants TIF2.0, TIF2.2 and TIF2.7). Note that, in contrast, SRC-1, a paralogue of TIF2, apparently harbours two distinct non-contiguous NIDs located in the central and C-terminal regions (Onate, S. A. et al., Science 270:1354-1357 (1995), Yao, T. P. et al., Proc. Natl. Acad. Sci. USA 93:10626-10631 (1996); Zhu, Y. et al., Gene Epression 6:185-195 (1996)).

[1] = target: T1, TIF2.1 (TIF2 amino acids 624 to 1287) (human, UniProt Q15596 624-1287); assay: Far-Western blot with 32P-labelled NR LBD probe, agonist present
T1 construct: Form without a stated tag: expression-library clone, expressed in Cos cells from pSG5, or in-vitro-translated; also called cytoplasmic TIF2.1 polypeptide
T1 sequence: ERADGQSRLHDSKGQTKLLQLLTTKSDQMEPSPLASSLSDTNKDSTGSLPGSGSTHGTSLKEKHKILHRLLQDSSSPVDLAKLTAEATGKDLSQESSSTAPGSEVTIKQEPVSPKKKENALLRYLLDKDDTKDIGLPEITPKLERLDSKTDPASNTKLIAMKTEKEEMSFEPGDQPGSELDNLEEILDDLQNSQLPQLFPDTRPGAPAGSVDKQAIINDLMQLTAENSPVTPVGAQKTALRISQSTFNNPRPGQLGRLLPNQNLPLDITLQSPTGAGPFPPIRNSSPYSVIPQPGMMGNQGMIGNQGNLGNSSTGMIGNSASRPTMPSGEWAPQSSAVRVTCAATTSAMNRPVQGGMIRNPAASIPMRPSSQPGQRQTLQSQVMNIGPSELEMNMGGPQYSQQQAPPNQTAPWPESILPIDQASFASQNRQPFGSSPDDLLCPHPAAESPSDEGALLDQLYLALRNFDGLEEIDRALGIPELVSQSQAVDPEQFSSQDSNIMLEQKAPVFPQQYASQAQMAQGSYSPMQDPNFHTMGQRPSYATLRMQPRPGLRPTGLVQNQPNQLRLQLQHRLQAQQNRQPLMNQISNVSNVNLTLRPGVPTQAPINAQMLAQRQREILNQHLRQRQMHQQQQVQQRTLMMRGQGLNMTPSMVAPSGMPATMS

[2] = target: T2, GST-hRARα(DEF) (pGEX2T-hRARα(DEF), amino acids 153-462) (human, UniProt P10276 153-462); assay: in vitro GST interaction of TIF2.1 point mutants, with ligand, relative to TIF2.1 wild type
T2 construct: range 153-462; Bacterially produced; also called GST-RAR; GST-RARα(DEF); not shown: glutathione-S-transferase (GST) of pGEX2T (Pharmacia)
T2 sequence (looked up): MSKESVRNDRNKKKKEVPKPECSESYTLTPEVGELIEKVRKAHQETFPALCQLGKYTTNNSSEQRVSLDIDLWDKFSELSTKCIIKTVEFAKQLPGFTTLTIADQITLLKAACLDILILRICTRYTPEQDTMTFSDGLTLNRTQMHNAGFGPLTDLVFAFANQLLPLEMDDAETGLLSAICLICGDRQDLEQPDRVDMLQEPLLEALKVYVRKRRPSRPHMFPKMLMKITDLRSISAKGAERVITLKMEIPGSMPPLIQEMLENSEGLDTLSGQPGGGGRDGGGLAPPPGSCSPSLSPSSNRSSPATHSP

[3] = target: B2; assay: as above
GAL4 reporter = assay: GAL4 DBD-TIF2 fusion CAT reporter transactivation assay; type: cell-based; details: Cos-1 and/or HeLa cells
Method: (a) HeLa cells were cotransfected with 1 μg (17m)5-βG-CAT and 10 μg GAL(1-147) or 1,3 and 10 μg GAL(1-147)-TIF2.1, respectively.
(c) Analysis of the transcriptional activity of GAL-TIF2 fusion proteins. Cos-1 and HeLa cells were transfected with 3 lag of plasmids expressing different regions of TIF2 fised to the DNA-binding domain of the yeast transcription factor GALA together with 1 μg of the (7m)5-G-CAT reporterplasmid. CAT assays were performed as described (Bocquel, M. T. et al., Nucl Acids Res. 17:2581-2595 (1989)). Quantitative data on CAT reporter expression were obtained either by phosphoimager analysis (BAS2000, Fuji) of ^14C-labeled CAT reaction products separated by thin-layer chromatography, or using the CAT ELISA Kit (Boehringer Mannheim). In all cases, CAT activities were normalized to the β-galactosidase concentrations resulting from cotransfection of 1 μg of pCMVPGal (gift from T. Lerouge) as internal control. Fold inductions above the GAL4 DBD value are indicated. The mean and standard deviation of at least three experiments are shown. A representative Western blot, illustrating the expression levels of the GAL4-TIF2 fusion proteins, expressed from 10 μg of the corresponding expression vectors, is shown on the left.
(b) Transcriptional activation of TIF2 AF-1 mutants. Cos-1 and HeLa cells were cotransfected with 3 μg of plasmids expressing different mutants of the TIF2 AF-1 fused to the DNA-binding domain of the yeast transcription factor GAL4 together with 1 μg of the (17m)5-G-CAT reporter plasmid. Fold inductions above the activation seen with the GAL4 DBD alone are indicated. The values represent the mean of at least three experiments.
(a) Transcriptional activation by TIF2.13 and TIF2.13 mutants. Cos-1 and HeLa cells were cotransfected with 3 μg of plasmids expressing the TIF2.13 region and the indicated TIF2.13 mutants fused to the DNA-binding domain of the yeast transcription factor GALA together with 1 μg of the (17m)5-G-CAT reporter plasmid. Fold inductions above the GAL4 DBD 1-fold value are indicated. The mean and standard deviation obtained from at least four experiments are shown. The expression levels of the GAL4-TIF2.13 fusion proteins were confirmed by western blotting (data not shown).
Transient transfections of HeLa and Cos-1 cells were performed as described (Gronemeyer et al., (1987); Bocquel, M. T. et al., Nucl. Acids Res. 17:2581-2595 (1989)).

B1: TIF2.34: TIF2.5 C-terminally truncated to Pro775 (protein)
chain: MKLLSSIEQACDICRLKKLKCSKEKPKCAKCLKNNWECRYSPKTKRSPLTRAHLTEVESRLERLEQLFLLIFPREDLDMILKMDSLQDIKALLTGLFVQDNVNKDAVTDRLASVETDMPLTLRQHRISATSSSEESSNKGQRQLTVSERADGQSRLHDSKGQTKLLQLLTTKSDQMEPSPLASSLSDTNKDSTGSLPGSGSTHGTSLKEKHKILHRLLQDSSSPVDLAKLTAEATGKDLSQESSSTAPGSEVTIKQEPVSPKKKENALLRYLLDKDDTKDIGLPEITPKLERLDSKTDP
binding to NRs (ER, RARα LBDs) (ER, RARα and RXRα LBDs): interacted with ER and RARα LBDs in a ligand-dependent manner

B2
binding result [1]: binds

B3: TIF2.1 m12 (LL→AA in NR box motifs I and II) (other)
chain: ERADGQSRLHDSKGQTKLLQAATTKSDQMEPSPLASSLSDTNKDSTGSLPGSGSTHGTSLKEKHKILHRAAQDSSSPVDLAKLTAEATGKDLSQESSSTAPGSEVTIKQEPVSPKKKENALLRYLLDKDDTKDIGLPEITPKLERLDSKTDPASNTKLIAMKTEKEEMSFEPGDQPGSELDNLEEILDDLQNSQLPQLFPDTRPGAPAGSVDKQAIINDLMQLTAENSPVTPVGAQKTALRISQSTFNNPRPGQLGRLLPNQNLPLDITLQSPTGAGPFPPIRNSSPYSVIPQPGMMGNQGMIGNQGNLGNSSTGMIGNSASRPTMPSGEWAPQSSAVRVTCAATTSAMNRPVQGGMIRNPAASIPMRPSSQPGQRQTLQSQVMNIGPSELEMNMGGPQYSQQQAPPNQTAPWPESILPIDQASFASQNRQPFGSSPDDLLCPHPAAESPSDEGALLDQLYLALRNFDGLEEIDRALGIPELVSQSQAVDPEQFSSQDSNIMLEQKAPVFPQQYASQAQMAQGSYSPMQDPNFHTMGQRPSYATLRMQPRPGLRPTGLVQNQPNQLRLQLQHRLQAQQNRQPLMNQISNVSNVNLTLRPGVPTQAPINAQMLAQRQREILNQHLRQRQMHQQQQVQQRTLMMRGQGLNMTPSMVAPSGMPATMS
notes: also called single intact NR box III
times less efficient in NR interaction than the wild-type TIF2 [2]: 20 times less efficient than wild type
times less efficient in NR interaction than the wild-type TIF2 [3]: 20 times less efficient than wild type

B4: TIF2.15: TIF2.13 with removal of 26 C-terminal amino acid residues (protein, UniProt Q15596 1011-1096, looked up, fragment)
chain: PSELEMNMGGPQYSQQQAPPNQTAPWPESILPIDQASFASQNRQPFGSSPDDLLCPHPAAESPSDEGALLDQLYLALRNFDGLEEI
transcriptional activation of GAL4 reporter by GAL4 DBD fusion (GAL4 reporter): reduced transcriptional activity only weakly

B5: TIF2.18: TIF2.13 with removal of 20 N-terminal amino acid residues (protein, UniProt Q15596 1031-1122, looked up, fragment)
chain: NQTAPWPESILPIDQASFASQNRQPFGSSPDDLLCPHPAAESPSDEGALLDQLYLALRNFDGLEEIDRALGIPELVSQSQAVDPEQFSSQDS
transcriptional activation of GAL4 reporter by GAL4 DBD fusion (GAL4 reporter): reduced transcriptional activity only weakly
